In publication PMC5430508 one finds fold of antibody trapped against BL21/1G cells data, which are given here for one substance.

This assay concerns the target 8G-AIDA receptor: eight tandemly repeated protein G C2 domains linked with AIDA, on the surface of Escherichia coli BL21 cells (BL21/8G) (not stated (streptococcal)). Put plainly: ELISA; bacteria coated on poly-L-lysine-treated 96-well plates (10^7 cfu/well added; about 6.7 × 10^6 cfu/well coated), blocked with 5% skim milk; HRP-conjugated goat anti-mouse IgG Fc (1 μg/mL), room temperature, 1 h; ABTS, absorbance at 405 nm. On the technique in general: An ELISA detects its analyte on a solid surface through an enzyme-linked reagent.

“HRP-conjugated goat anti-mouse IgG Fc (antibody)” had a fold of antibody trapped against BL21/1G cells of 18.9 fold.
